Test results taken from patent publication US8846363B2, “Compositions of and methods of using sulfatases from Flavobacterium heparinum” (priority 2007, dated 2014).

B1: Flavobacterium heparinum 6-O-sulfatase (ORF B), recombinant, NH2-terminal truncation lacking signal sequence, SEQ ID NO: 2 (Pedobacter heparinus DSM 2366) (protein)
chain: TLMSCQQPKPAESAKRPNIVFIMTDDHTIQAISAYGSKLVKTPNLDRIANEGMLFNNCFVTNAVCGPSRATILTGKYSHLNGLTDNSKVFDSTQVIYPQLLKKAGYQTAMIGKWHLGSTPMGFDYYSILPNQGQYYQPEFIENGHLVKEKGYVTDLITDKAIGFLEKRDHDKPFLMIYQHKAPHRNWLPAPRHLGMFDDTVFPEPANLLDDFKGRGRAAKEQLMNISTDMWPAWDLKMLSTAQLDSMAKLPVSPKFKDAKGDDYQQANDPSLDKARFFEVYNRMTDAEKVQWRKVYDKRVAEFKRLNPKGADLVRWKYQQYMRDYLACVVSVDENVGRLMDYLKKIGELDNTIIVYTSDQGFYLGEHGYFDKRFMYDESFRTPLMVRYPPSVKAGSVSNAFAMNLDFAPTLLDYAGVKIPADMQGLSLRPVLDNAGKSPENWRKAVYYHYYEFPSWHMVKRHYGIRTERYKLIHFYNDIDEWELYDMQKDPHEMQNLYNDKAYEPIIKDLKVQMKKLQVQYKDTNPTEAL
notes: E. coli BL21(DE3), N-terminal 6xHis removed by thrombin
B2: Flavobacterium heparinum N-sulfamidase (ORF C), recombinant, NH2-terminal truncation lacking signal sequence, SEQ ID NO: 4 (Pedobacter heparinus DSM 2366) (protein)
chain: SCTSPEKKTDRPNILMIMSDNQSWNHVGSYGDQTVRTPNMDRIAKEGVRFTNAFCSSPSCTPARAGMLTGQDIWRLEDGGNLWGVLPVKYKVYPDLLEEAGYAIGFQGKGWGPGSFEANKRPRNPAGNEFKSFGAFLKDKKEGPWCYWISSHEPHRPYVEGSGEKAGIDPNKVKVPAYLPDHISIRKDIADYYAAVETFDRELGEALDQLKASGELDNTVIVVCSDNGWQMPRGLANLYDFGTHVPLIISWPGKFKQDVVADNLVTLNDLAPTFLQLGKVPVPADMTGKSLLPIVEAGKKDEKPRDYVVLGRERHAFVRRHGLGYPGRAIRTKDYLYIKNYEPNRWPAGDPPFYGDIDPYMFNWPGETKYYLIEHKDDPKVKSFFELGMGKRPAEELFDINKDPDELHNLAALPEYQKIKQELVAKLRNYLVATKDPRETNGNIQIWDTAAYFSEIDKTPKPSKEMQKRFKLDSSYNYLK
notes: as for B1

Key:
[1] = Storage stability of purified enzymes; type: physicochemical; settings: 4° C., ~10 mg/mL
Description: Final protein concentrations were determined colorimetrically using the Bradford Assay (Bio-Rad, Hercules, Calif.) and confirmed by UV absorption spectroscopy using theoretical molar extinction coefficients (ε280) of 94,730 M^−1 (61,572 Da) and 86,340 (53,193 Da) for the NH2-terminally truncated ORF B (6-O-sulfatase) and ORF C(N-sulfamidase), respectively. These values were calculated for thrombin-cleaved proteins lacking a 6×His purification tag. Enzymes were stored at 4° C. at a concentration of ˜10 mg/mL.

[2] = Sequential degradation of heparin oligosaccharide by exo-enzymes, MALDI-MS; type: biochemical; settings: after 2-O-sulfatase and Δ4,5 glycuronidase
Description: The purified pentasulfated tetrasaccharide ΔU2SHNS,6SIHNS,6S was provided by Dr. I. Capila (Momenta Pharmaceuticals, Cambridge, Mass.). Enzyme sequence was as follows: 2-O-sulfatase→Δ4,5 glycuronidase→6-O-sulfatase→N-sulfamidase. After each step, the enzyme was heat inactivated and 20 μL aliquots removed prior to the addition of the next enzyme in the sequence. Initial reaction conditions included 20 mM Tris, pH 7.2 and 60 nanomoles of tetrasaccharide in a 120 μL reaction volume. All enzyme reactions were carried out at 30° C. Enzyme specific conditions included the following: 1) 2-O-sulfatase, 1 μM enzyme, 6 hours; 2) Δ4,5 glycuronidase, 1 μM enzyme, 6 hours; 3) 6-O-sulfatase, 5 μM enzyme, 5 mM CaCl2, 12-15 hours; 4) N-sulfamidase, same conditions as for 6-O-sulfatase. Molecular masses of enzyme products were determined by MALDI mass spectrometry using established methods (Rhomberg et al., 1998, Proc Natl Acad Sci USA 95, 12232-12237).

[3] = Fluorimetric arylsulfatase assay using 4-MUS; type: biochemical
Description: Arylsulfatase activity was measured independently using two chromogenic substrates, 4-catechol-sulfate and 4-methylumbelliferyl-sulfate (4-MUS). The catechol substrate assay was conducted generally as described (Beil et al., 1995 Eur J Biochem 229, 385-394). Briefly, 10 mM substrate were incubated with ˜30 μM recombinant enzyme overnight (12-15 hours) at 37° C. in a 100 μL reaction which included 50 mM MES pH 7.0 and +2 mM CaCl2. Reactions were quenched by the addition of 5 μL 5M NaOH and colorimetric activity determined spectroscopically at 515 nm. Fluorimetric arylsulfatase assay using 4-MUS was as described (Morimoto-Tomita et al., 2002 J Biol Chem 277, 49175-85) with some modifications. Reaction conditions included 10 μM enzyme, 2 mM 4-MUS, 50 mM sodium acetate, pH 6.0, and 5 mM CaCl2 in a 20 μL reaction volume. The enzyme incubation temperature was 30° C. Activity was measured as a function of time ranging from 3 to 24 hours; the reactions were quenched by the addition of 200 μL 0.5 M Na2CO3, pH 10.7. Detection of fluorescent methylumbelliferone was measured at this alkaline pH using a SpectraMax microtiter plate reader ([…], Sunnyvale, Calif.) set at excitation and emission wavelengths of 360 and 440 nm, respectively. Fluorescence intensity was corrected against background (minus enzyme control). In both assays, 0.5 unit of arylsulfatase from Aerobacter aerogenes (Sigma, St. Louis, Mo.) was used as a positive control.

[4] = Pilot capillary electrophoresis desulfation assay with monosulfated 4-MU gluco- and galactopyranosides; type: biochemical
Description: Initial assessment of substrate specificity and pH optima was made using a capillary electrophoresis-based assay for the detection of desulfated products. Preliminary enzyme activity was measured against the following series of fluorescently derivatized, monosulfated gluco and galactopyranosides: 4-MU-GlcNAc,6S, 4-MU-GlcNS, 4-MU-GalNAc,6S and 4-MU-Gal6S. Standard reactions included 1 mM substrate, 1-10 μM enzyme, 50 mM sodium acetate, pH 5.5-6.5 and 5 mM CaCl2 in a 20 μL reaction volume. For pilot experiments, exhaustive reactions involved overnight incubations at 30° C. Enzyme was inactivated by heat denaturation at 95° C. for 10 minutes, followed by a 10-fold dilution into water. Reaction products were resolved by capillary electrophoresis using a 25 cm long, 75 μm (i.d.) fused silica capillary (Agilent Technologies, Palo Alto, Calif.). Electrophoresis was carried out under negative polarity by applying a voltage of −15 kV (˜1.2 W) for 10 minutes. Substrate desulfation was measured as a percentage of substrate depletion relative to a minus enzyme control as monitored by the loss of UV absorbance at 315 nm detected at approximately 4 minutes. A standard capillary electrophoresis buffer included 50 mM Tris and 10 μM dextran sulfate (average MW of 10,000 Da) adjusted to pH 2.0 with phosphoric acid. At this pH, saccharide migration occurred on the basis of charge without the influence of electro-osmotic flow.

[5] = Desulfation of unsaturated heparin disaccharides by capillary electrophoresis; type: biochemical; settings: ΔU±2SHNAc,6S, ΔU±2SHNS,6S (6-O-sulfatase); ΔU±2SHNS+6S (N-sulfamidase)
Description: The ability of both enzymes to desulfate unsaturated heparin and chondroitin disaccharides was assessed essentially as described for capillary electrophoresis based compositional analyses of enzymatically generated glycosaminoglycan di- and tetra-saccharides (Venkataraman et al., 1999 Science 286, 537-542). For these studies, the following disaccharide substrates were tested: ΔUGlcNAc,6S; ΔU2SGlcNAc,6S; ΔUGlcNS; ΔUGlcNS,6S; ΔU2SGlcNS,6S; and ΔUGalNac,6S. Reactions included 500 μM substrate, 10 μM enzyme, 50 mM sodium acetate, pH 6.5 and +/−2 mM CaCl2 in a 20 μL reaction volume.

[6] = Compositional analyses of sulfatase treated heparin; type: biochemical; settings: 8 hours preincubation, then heparinase I and III
Description: 20 μg heparin were preincubated with 10 μM 6-O-sulfatase or N-sulfamidase for 8 hours at 30° C. in a 20 μL reaction which included 25 mM sodium acetate, pH 7.0 and 2 mM calcium acetate, pH 7.0. Following this preincubation, enzymes were inactivated by heat denaturation at 95° C. for 10 minutes and heparin exhaustively digested overnight at 37° C. by the addition of 2 μL of a concentrated enzyme cocktail containing heparinase I and III. Subsequent CE-based compositional analyses of heparinase-derived disaccharides were completed as described (Venkataraman et al., 1999 Science 286, 537-542).

Row | Molecule | retention of enzyme activity on storage [1] | desulfation of the trisaccharides at the non-reducing end [2] | hydrolysis of 4-MU sulfate [3] | rate of 4-MU sulfate hydrolysis relative to the ORF C protein [3] | substrate specificity among four monosulfated 4-MU substrates [4] | activity on the two 6-O-sulfated galactose sugars ([4]; 4-MU-Gal6S and 4-MU-GalNAc,6S) | desulfation of unsaturated heparin disaccharides [5] | effect of sulfatase pretreatment of unfractionated heparin on heparinase-derived cleavage products [6]
1 | B1 | Full enzyme activity was retained for several months | able to singularly desulfate both trisaccharides | partly hydrolyze | at least 3 fold | specific for the 6-O-sulfated glucosamine | did not act upon | None of the unsaturated disaccharides were desulfated | no effect on the compositional profile
2 | B2 | Full enzyme activity was retained for several months | not able to do so | only negligible activity |  | could only hydrolyze the glucosamine sulfated at the 2-amino position |  | None of the unsaturated disaccharides were desulfated | no effect on the compositional profile
